Experimental data from US20230227534A1, “METHOD FOR GENERATING VARIANTS OF A PROTEIN” (ECOLE POLYTECHNIQUE FEDERALE DE LAUSANNE (EPFL), priority 2019, published 2023).

B1: M257Y.I305A: opsin (rhodopsin) double mutant, M257Y on TMH6 and I305A on TMH7 (protein, UniProt P02699 1-348, looked up, variant M257Y I305A)
Rhodopsin: MNGTEGPNFYVPFSNKTGVVRSPFEAPQYYLAEPWQFSMLAAYMFLLIMLGFPINFLTLYVTVQHKKLRTPLNYILLNLAVADLFMVFGGFTTTLYTSLHGYFVFGPTGCNLEGFFATLGGEIALWSLVVLAIERYVVVCKPMSNFRFGENHAIMGVAFTWVMALACAAPPLVGWSRYIPEGMQCSCGIDYYTPHEETNNESFVIYMFVVHFIIPLIVIFFCYGQLVFTVKEAAAQQQESATTQKAEKEVTRMVIIYVIAFLICWLPYAGVAFYIFTHQGSDFGPIFMTIPAFFAKTSAVYNPVAYIMMNKQFRNCMVTTLCCGKNPLGDDEASTTVSKTETSQVAPA
B2: M257Y: opsin (rhodopsin) mutant, M257Y on TMH6 (protein, UniProt P02699 1-348, looked up, variant M257Y)
Rhodopsin: MNGTEGPNFYVPFSNKTGVVRSPFEAPQYYLAEPWQFSMLAAYMFLLIMLGFPINFLTLYVTVQHKKLRTPLNYILLNLAVADLFMVFGGFTTTLYTSLHGYFVFGPTGCNLEGFFATLGGEIALWSLVVLAIERYVVVCKPMSNFRFGENHAIMGVAFTWVMALACAAPPLVGWSRYIPEGMQCSCGIDYYTPHEETNNESFVIYMFVVHFIIPLIVIFFCYGQLVFTVKEAAAQQQESATTQKAEKEVTRMVIIYVIAFLICWLPYAGVAFYIFTHQGSDFGPIFMTIPAFFAKTSAVYNPVIYIMMNKQFRNCMVTTLCCGKNPLGDDEASTTVSKTETSQVAPA
B3: K231E.E232I.T251R: opsin (rhodopsin) ICL3 triple mutant (protein, UniProt P02699 1-348, looked up, variant K231E E232I T251R)
Rhodopsin: MNGTEGPNFYVPFSNKTGVVRSPFEAPQYYLAEPWQFSMLAAYMFLLIMLGFPINFLTLYVTVQHKKLRTPLNYILLNLAVADLFMVFGGFTTTLYTSLHGYFVFGPTGCNLEGFFATLGGEIALWSLVVLAIERYVVVCKPMSNFRFGENHAIMGVAFTWVMALACAAPPLVGWSRYIPEGMQCSCGIDYYTPHEETNNESFVIYMFVVHFIIPLIVIFFCYGQLVFTVEIAAAQQQESATTQKAEKEVRRMVIIMVIAFLICWLPYAGVAFYIFTHQGSDFGPIFMTIPAFFAKTSAVYNPVIYIMMNKQFRNCMVTTLCCGKNPLGDDEASTTVSKTETSQVAPA

System: transducin
Experiment: transducin activation by designed opsin mutants (constitutive and light-induced activity)
Assay type: biochemical
Settings: data not shown

Molecule	rate of transducin activation (compared to M257Y alone)	constitutive activity compared to WT opsin	constitutive activity as share of the light-induced maximal activity
B1	higher	much larger	
B2		much larger	
B3		dramatically increased	higher than 40%
